From patent US20180002425A1 come the findings set out here.

In experiment [1] the target is wild-type human TpoR on Ba/F3-hMpl cells (human) (UniProt P40238). Briefly: cell-based or functional assay.
The target in experiment [2] is TpoR-IL6ST chimeric receptor on HEK293T SIE-bla reporter cells (clone CR2-9) (human) (UniProt P40238). Briefly: cell-based or functional assay.
Experiment [3] has as its target granulocyte colony stimulating factor receptor (UniProt Q99062).

Sequence of granulocyte colony stimulating factor receptor (Q99062 25-836 limits assumed): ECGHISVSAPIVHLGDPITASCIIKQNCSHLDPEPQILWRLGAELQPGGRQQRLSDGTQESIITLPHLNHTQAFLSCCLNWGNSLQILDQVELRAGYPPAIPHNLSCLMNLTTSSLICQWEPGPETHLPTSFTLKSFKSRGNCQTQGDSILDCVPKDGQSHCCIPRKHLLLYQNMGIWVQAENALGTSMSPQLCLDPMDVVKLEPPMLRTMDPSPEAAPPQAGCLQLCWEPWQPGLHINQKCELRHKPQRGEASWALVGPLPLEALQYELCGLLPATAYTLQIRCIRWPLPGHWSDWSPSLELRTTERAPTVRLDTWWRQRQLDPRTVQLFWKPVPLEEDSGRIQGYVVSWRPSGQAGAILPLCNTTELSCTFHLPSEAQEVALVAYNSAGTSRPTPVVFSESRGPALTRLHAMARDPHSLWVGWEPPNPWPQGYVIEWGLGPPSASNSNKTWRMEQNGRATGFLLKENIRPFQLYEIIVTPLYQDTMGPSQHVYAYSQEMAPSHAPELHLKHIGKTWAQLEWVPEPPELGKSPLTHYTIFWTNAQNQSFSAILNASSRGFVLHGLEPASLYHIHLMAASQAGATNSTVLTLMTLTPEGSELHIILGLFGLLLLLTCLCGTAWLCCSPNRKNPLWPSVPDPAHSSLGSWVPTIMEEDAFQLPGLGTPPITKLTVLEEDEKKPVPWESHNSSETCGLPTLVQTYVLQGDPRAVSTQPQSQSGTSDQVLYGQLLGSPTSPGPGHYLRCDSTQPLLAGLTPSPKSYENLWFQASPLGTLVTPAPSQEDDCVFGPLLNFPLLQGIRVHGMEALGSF

In experiment [1], “Thrombopoietin (from UniProt P40225 22-353) (ligand)” showed an EC50, long-term proliferation assay (MTS) of Ba/F3-hMPL cells of 70 pM. In experiment [2], this substance displayed an EC50, short-term fluorescence (FRET beta-lactamase) reporter assay of 20 pM. As for “granulocyte colony stimulating factor (from UniProt P09919 31-204) (ligand)”, the Responsive Population (fraction of reporter cells in the gate, Pacific Blue-A against AmCyan-A, FRET beta-lactamase reporter; unit not given) in experiment [3] is 84.2.
